Source: PMC11168072
Several values for one entry are separate records, joined by “and”; a condition that tells them apart may be missing. Identical values can stand only once. Values belong to the substance of their own block, whether it stands above or below them.

What was measured:
[1] = molecular target: DtpA, A-type dye-decolorizing peroxidase from Streptomyces lividans (Streptomyces lividans); experiment: AUC; sedimentation velocity, absorbance at 410 nm, 40,000 rpm, 20°C, 50 mM HEPES pH 7.0, 100 mM NaCl, protein 0.75-0.85 μM, c(S) model in SEDFIT
[2] = molecular target: DtpAa, A-type dye-decolorizing peroxidase from Streptomyces lividans (Streptomyces lividans); experiment: as above
[3] = molecular target: DtpB, B-type dye-decolorizing peroxidase from Streptomyces lividans (Streptomyces lividans); experiment: cryo-EM structure; single particle, Talos Arctica 200 kV, DtpB ~6 mg/mL with 8 mM CHAPSO, C1 symmetry, low resolution maps of quasi-hexamer (14.5 Å) and dodecamer (13.4 Å)
[4] = molecular target: DtpB, B-type dye-decolorizing peroxidase from Streptomyces lividans (Streptomyces lividans); experiment: cryo-EM structure; single particle, Titan Krios 300 kV, DtpB ~6 mg/mL with 8 mM CHAPSO, D3 symmetry imposed, 3.02 Å map of the hexamer
[5] = molecular target: DtpB, B-type dye-decolorizing peroxidase from Streptomyces lividans (Streptomyces lividans); experiment: AUC; sedimentation velocity, absorbance at 410 nm, 40,000 rpm, 20°C, 50 mM HEPES pH 7.0, 100 mM NaCl, protein 0.75-0.85 μM, c(S) model in SEDFIT

proportion of the sedimenting species (ratio), species 1, dimer [1]: 76
proportion of the sedimenting species (ratio), species 2, tetramer [1]: 13
stoichiometry N [1]: 2 and 4
Substance: DtpA, A-type dye-decolorizing peroxidase from Streptomyces lividans (enzyme)

stoichiometry N [2]: 2
Substance: DtpAa, A-type dye-decolorizing peroxidase from Streptomyces lividans (enzyme)

stoichiometry N [3]: 12
stoichiometry N [4]: 6
proportion of the sedimenting species (ratio), species 1, dimer [5]: 2.5
proportion of the sedimenting species (ratio), species 2, hexamer [5]: 82
proportion of the sedimenting species (ratio), species 3, dodecamer [5]: 10
Substance: DtpB, B-type dye-decolorizing peroxidase from Streptomyces lividans (enzyme)
